± gives the standard deviation of the averaged measurements.
B1: library; a variant is named by its letters at N, in order (parent)
chain: GCUGUCACCGGUGUAUUACCCUAGUGGUCGACCGGUCUGAUGAGUCUNNNNNNAGACGAAACAGC

Assays:
hypoxanthine [1] = variants of: B1; test: FACS-Seq fitted mean relative fluorescence mCherry/BFP without ligand (log10 relative fluorescence); ligand: hypoxanthine (xanthine aptamer); higher = higher reporter protein expression; settings: HEK293T, ligand present: no
Summary of the method: (§1)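 HEK293T libraries were lentivirally transduced with an mCherry reporter carrying the ribozyme switch and an EF1α-BFP marker, enriched, and incubated for 48 h with or without ligand before sorting into 6 bins by mCherry/BFP. Genomic DNA from each bin was PCR-amplified, barcoded and sequenced on MiSeq. Fluorescence is the fitted normal mean of the bin counts. The fit used log10(mCherry/BFP), and means were scaled to five spiked-in control ribozymes.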

hypoxanthine [2] = variants of: B1; test: normalized RNA/DNA level with ligand (relative to sTRSVctl = 100) (log10 (% of sTRSVctl)); ligand: hypoxanthine (xanthine aptamer); higher = less ribozyme self-cleavage, higher mRNA level; settings: ligand concentration (+) RNA-Seq: 5 mM, HEK293T, reporter: mCherry (pCS4076), ligand present: yes
Summary of the method: (§2)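 RNA level was computed as RNA reads over DNA reads divided by a spiked-in non-cleaving sequence or by the top sequences, then scaled and log-transformed. Scaling was ×100 with log10, the top group was 25 sequences, and the threshold was ≥100 DNA reads. The reads came from HEK293T cells transfected at 4 µg per 6-well well with ribozyme switch library plasmids (mCherry, or eGFP in some ligand experiments). Total RNA was extracted with EDTA 72 h after transfection, with any ligand added 1 h before it.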

hypoxanthine [3] = variants of: B1; test: normalized RNA/DNA level without ligand (relative to sTRSVctl = 100) (log10 (% of sTRSVctl)); ligand: hypoxanthine (xanthine aptamer); higher = less ribozyme self-cleavage, higher mRNA level; settings: HEK293T, reporter: mCherry (pCS4076), ligand present: no
Summary of the method: as §2

hypoxanthine [4] = variants of: B1; test: FACS-Seq fitted mean relative fluorescence mCherry/BFP with ligand (log10 relative fluorescence); ligand: hypoxanthine (xanthine aptamer); ligand concentration (+) FACS-Seq: 5 mM; higher = higher reporter protein expression; settings: HEK293T, ligand present: yes
Summary of the method: as §1

Variant | FACS-Seq fitted mean (log10) (hypoxanthine [1]) | normalized RNA/DNA level with ligand (log10) (hypoxanthine [2]) | normalized RNA/DNA level without ligand (log10) (hypoxanthine [3]) | FACS-Seq fitted mean (log10) (hypoxanthine [4])
UGGUUU | 0.325 ± 0.015 | 1.95 ± 0.023 | 1.885 ± 0.005 | 0.434 ± 0.035
UGGUUC | -0.0246 ± 0.0066 | 1.96 ± 0.063 | 1.925 ± 0.018 | 0.212 ± 0.028
AGGCCU | 0.421 ± 0.032 | 1.94 ± 0.022 | 1.97 ± 0.069 | 0.554 ± 0.071
AGGCCG | 0.147 ± 0.0087 | 1.89 ± 0.018 | 1.67 ± 0.054 | 0.366 ± 0.045
AGGCCA | 0.668 ± 0.014 | 1.96 ± 0.016 | 1.86 ± 0.023 | 0.607 ± 0.064
GGUCCA | 0.354 ± 0.029 | 1.96 ± 0.023 | 1.94 ± 0.056 | 0.465 ± 0.041
UGGCGA | 0.345 ± 0.039 | 1.94 ± 0.031 | 1.65 ± 0.034 | 0.579 ± 0.11
CGUGGA | 0.123 ± 0.011 | 1.96 ± 0.02 | 1.729 ± 0.0031 | 0.396 ± 0.057
CGUGCU | 0.599 ± 0.1 | 1.909 ± 0.0056 | 1.899 ± 0.0073 | 0.518 ± 0.04
CGUGCA | 0.438 ± 0.026 | 1.932 ± 0.0054 | 1.72 ± 0.03 | 0.662 ± 0.033
CGGAUU | -0.13 ± 0.0099 | 1.94 ± 0.045 | 1.744 ± 0.0072 | 0.244 ± 0.014
GGGCGG | 0.372 ± 0.034 | 1.9325 ± 0.00079 | 1.577 ± 0.0083 | 0.586 ± 0.017
CGGGUU | -0.0176 ± 0.018 | 1.99 ± 0.027 | 1.89 ± 0.044 | -0.176 ± 0.051
CGGGUA | 0.436 ± 0.033 | 1.94 ± 0.044 | 1.82 ± 0.068 | 0.64 ± 0.015
GGUAGG | -0.101 ± 0.028 | 1.69 ± 0.062 | 1.29 ± 0.041 | 0.5153 ± 0.001
GGUAGU | 0.573 ± 0.11 | 1.9 ± 0.06 | 1.75 ± 0.0084 | 0.507 ± 0.034
GGUAGC | 0.239 ± 0.017 | 1.86 ± 0.054 | 1.35 ± 0.059 | 0.647 ± 0.056
UGGCAG | 0.155 ± 0.013 | 1.91 ± 0.045 | 1.69 ± 0.045 | 0.563 ± 0.052
UGGCAU | 0.353 ± 0.011 | 1.95 ± 0.06 | 1.755 ± 0.014 | 0.465 ± 0.046
CGGGGC | 0.7 ± 0.032 | 1.95 ± 0.021 | 1.896 ± 0.017 | 0.628 ± 0.0078
AGUCUG | 0.186 ± 0.024 | 1.9 ± 0.066 | 1.54 ± 0.029 | 0.414 ± 0.053
CGUAUA | 0.422 ± 0.015 | 1.91 ± 0.025 | 1.641 ± 0.007 | 0.566 ± 0.016
GGGAGU | 0.36 ± 0.0084 | 1.92 ± 0.047 | 1.63 ± 0.039 | 0.629 ± 0.011
GGGAGG | 0.0166 ± 0.058 | 1.76 ± 0.021 | 1.3 ± 0.03 | 0.374 ± 0.033

Variant | FACS-Seq fitted mean (log10) (hypoxanthine [1]) | normalized RNA/DNA level with ligand (log10) (hypoxanthine [2]) | normalized RNA/DNA level without ligand (log10) (hypoxanthine [3]) | FACS-Seq fitted mean (log10) (hypoxanthine [4])
AGUAAA | 0.625 ± 0.22 | 1.891 ± 0.011 | 1.73 ± 0.063 | 0.59 ± 0.032
AGUAAU | 0.85054 ± 0.00034 | 1.88 ± 0.03 | 1.85 ± 0.056 | 0.78 ± 0.058
GGGCCA | 0.693 ± 0.015 | 1.9809 ± 0.00094 | 1.99 ± 0.032 | 0.808 ± 0.082
GGGCCG | -0.0164 ± 0.068 | 1.98 ± 0.05 | 1.923 ± 0.0046 | 0.175 ± 0.031
AGGAGU | 0.142 ± 0.026 | 1.8 ± 0.024 | 1.37 ± 0.03 | 0.537 ± 0.073
AGGAGG | 0.0646 ± 0.011 | 1.584 ± 0.0034 | 1.186 ± 0.0034 | 0.626 ± 0.055
GGUACG | 0.173 ± 0.027 | 1.88 ± 0.031 | 1.49 ± 0.016 | 0.506 ± 0.019
GGUACU | 0.2 ± 0.042 | 1.97 ± 0.083 | 1.93 ± 0.047 | 0.258 ± 0.029
GGUGCU | 0.444 ± 0.03 | 2.022 ± 0.015 | 1.977 ± 0.015 | 0.475 ± 0.041
GGUGCG | 0.452 ± 0.027 | 1.91 ± 0.056 | 1.58 ± 0.094 | 0.656 ± 0.018
GGUGCC | 0.798 ± 0.026 | 2.009 ± 0.0084 | 1.97 ± 0.04 | 0.76 ± 0.035
AGUAGU | 0.38 ± 0.09 | 1.831 ± 0.016 | 1.45 ± 0.07 | 0.577 ± 0.036
AGUAGA | 0.394 ± 0.025 | 1.83 ± 0.031 | 1.42 ± 0.025 | 0.725 ± 0.0082
GGGUAG | -0.254 ± 0.0079 | 1.74 ± 0.03 | 1.44 ± 0.079 | 0.395 ± 0.063
GGGUAA | 0.396 ± 0.048 | 1.884 ± 0.0098 | 1.71 ± 0.045 | 0.6223 ± 0.0027
GGGUAC | 0.1586 ± 0.00038 | 1.93 ± 0.06 | 1.68 ± 0.037 | 0.529 ± 0.049
GGGUAU | 0.137 ± 0.2 | 1.94 ± 0.053 | 1.71 ± 0.047 | 0.374 ± 0.03
CGUAAA | 0.554 ± 0.028 | 1.865 ± 0.0031 | 1.65 ± 0.034 | 0.4915 ± 0.0049
GGGGCU | -0.598 ± 0.026 | 1.99 ± 0.074 | 2.008 ± 0.015 | -0.677 ± 0.077
GGGGCC | -0.395 ± 0.028 | 1.97 ± 0.036 | 1.89 ± 0.077 | 0.0142 ± 0.039
GGUCAC | 0.222 ± 0.021 | 1.91 ± 0.05 | 1.825 ± 0.0063 | 0.633 ± 0.0098
GGGCUG | 0.228 ± 0.058 | 1.967 ± 0.0031 | 1.775 ± 0.0099 | 0.495 ± 0.026
GGGCUA | 0.512 ± 0.024 | 2.01 ± 0.015 | 1.943 ± 0.015 | 0.456 ± 0.011
AGGUAU | 0.648 ± 0.15 | 1.871 ± 0.013 | 1.69 ± 0.03 | 0.665 ± 0.12

Variant | FACS-Seq fitted mean (log10) (hypoxanthine [1]) | normalized RNA/DNA level with ligand (log10) (hypoxanthine [2]) | normalized RNA/DNA level without ligand (log10) (hypoxanthine [3]) | FACS-Seq fitted mean (log10) (hypoxanthine [4])
AGGUAC | 0.133 ± 0.061 | 1.893 ± 0.017 | 1.72 ± 0.02 | 0.0782 ± 0.049
AGGUAA | 0.414 ± 0.059 | 1.87 ± 0.022 | 1.6 ± 0.06 | 0.443 ± 0.069
AGGUAG | 0.161 ± 0.019 | 1.73 ± 0.019 | 1.3 ± 0.047 | 0.537 ± 0.019
UGGGUA | 0.491 ± 0.13 | 1.95 ± 0.031 | 1.85 ± 0.061 | 0.699 ± 0.12
UGUAGA | 0.133 ± 0.057 | 1.93 ± 0.043 | 1.55 ± 0.049 | 0.19 ± 0.011
UGGCUG | 0.218 ± 0.011 | 2.02 ± 0.0097 | 1.95 ± 0.04 | 0.298 ± 0.023
UGGCUU | 0.674 ± 0.017 | 1.97 ± 0.02 | 1.94 ± 0.03 | 0.66 ± 0.06
GGUAAA | 0.652 ± 0.01 | 1.9 ± 0.022 | 1.69 ± 0.007 | 0.581 ± 0.029
GGUAAG | 0.176 ± 0.027 | 1.744 ± 0.013 | 1.25 ± 0.054 | 0.6778 ± 0.0029
GGUAAU | 0.123 ± 0.061 | 1.918 ± 0.019 | 1.79 ± 0.035 | 0.314 ± 0.036
GGUAAC | 0.447 ± 0.063 | 1.96 ± 0.067 | 1.82 ± 0.031 | 0.455 ± 0.018
GGUAUG | -0.113 ± 0.019 | 1.73 ± 0.052 | 1.32 ± 0.038 | 0.434 ± 0.035
UGUAUG | 0.361 ± 0.043 | 1.909 ± 0.007 | 1.777 ± 0.0029 | 0.435 ± 0.059
AGUACG | 0.173 ± 0.058 | 1.84 ± 0.022 | 1.38 ± 0.052 | 0.423 ± 0.086
AGGGUC | 0.588 ± 0.012 | 2.003 ± 0.0048 | 1.94 ± 0.06 | 0.51 ± 0.11
AGGGUA | 0.412 ± 0.086 | 1.95 ± 0.041 | 1.82 ± 0.0091 | 0.427 ± 0.064
AGGGUU | 0.328 ± 0.006 | 1.97 ± 0.027 | 1.9 ± 0.029 | 0.0205 ± 0.029
AGGGAG | -0.123 ± 0.041 | 1.78 ± 0.086 | 1.4 ± 0.042 | 0.0991 ± 0.022
AGGGAA | 0.524 ± 0.1 | 1.86 ± 0.025 | 1.68 ± 0.045 | 0.684 ± 0.034
AGGGAC | 0.0327 ± 0.041 | 1.916 ± 0.017 | 1.7 ± 0.018 | -0.137 ± 0.14
AGGCUG | 0.279 ± 0.011 | 2 ± 0.04 | 1.78 ± 0.045 | 0.333 ± 0.014
AGGCUA | 0.509 ± 0.0085 | 1.93 ± 0.031 | 1.811 ± 0.0095 | 0.617 ± 0.057
UGUCUA | -0.725 ± 0.058 | 1.95 ± 0.067 | 1.92 ± 0.02 | -0.723 ± 0.08

— the supplement of paper PMC6757056
